Assay results as given in patent US20030096757.

System: 19-mer (SEQ ID NO:11) cleavage domain peptide

Sequence of Active MMP-9 enzyme (chain, as listed by the source): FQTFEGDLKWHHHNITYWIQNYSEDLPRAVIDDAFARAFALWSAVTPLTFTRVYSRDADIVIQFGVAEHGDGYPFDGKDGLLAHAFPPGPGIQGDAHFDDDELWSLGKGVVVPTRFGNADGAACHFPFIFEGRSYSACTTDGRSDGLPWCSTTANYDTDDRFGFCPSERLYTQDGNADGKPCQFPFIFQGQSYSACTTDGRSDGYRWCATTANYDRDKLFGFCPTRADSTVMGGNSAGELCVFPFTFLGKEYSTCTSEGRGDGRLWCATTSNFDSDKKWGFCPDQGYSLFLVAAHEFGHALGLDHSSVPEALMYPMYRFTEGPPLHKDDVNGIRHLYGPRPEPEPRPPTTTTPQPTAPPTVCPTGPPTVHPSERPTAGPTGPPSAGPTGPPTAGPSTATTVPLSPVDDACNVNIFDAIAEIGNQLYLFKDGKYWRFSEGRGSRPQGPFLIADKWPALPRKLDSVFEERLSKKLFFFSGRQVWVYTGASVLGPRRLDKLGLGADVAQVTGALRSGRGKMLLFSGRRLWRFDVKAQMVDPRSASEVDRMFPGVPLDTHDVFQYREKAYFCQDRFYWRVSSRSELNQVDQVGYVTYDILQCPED

Active MMP-9 enzyme
extended time course of MMP-9 catalyzed hydrolysis of collagen: the 19-mer (SEQ ID NO:11) effectively inhibits the MMP-9 catalyzed hydrolysis of collagen to beyond 1000 minutes
